Measurements as given in patent US20230416942A1 (YALE UNIVERSITY, published 2023).

How the values were obtained:
IL17A [1] = biological target: T1, IL17A (human, UniProt Q16552 24-155); assay: BLI, AHC sensor, nanobody-Fc captured, antigen in solution
T1 construct: Recombinant human protein in ELISA and BLI
T1 sequence (looked up): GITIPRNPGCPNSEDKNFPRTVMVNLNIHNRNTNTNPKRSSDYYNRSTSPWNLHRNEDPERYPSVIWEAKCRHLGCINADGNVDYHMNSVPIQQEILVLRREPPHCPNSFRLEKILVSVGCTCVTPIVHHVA
Excerpt: Octet RED96 System (ForteBio) was used to perform kinetic measurement of nanobody binding to antigens. For Anti-Penta-His Biosensors (HIS1K), his-tagged recombinant human proteins were first immobilized onto the biosensors, and recombinant nanobodies fused with human IgG1 were applied to detect binding. For Anti-Human IgG Fc Capture Biosensors (AHC), recombinant nanobodies fused with human IgG1 were first loaded onto the biosensors, and probes were dipped in serial dilutions of recombinant human antigens.

IL17A [2] = biological target: T1, IL17A; assay: ELISA, plate-coated recombinant human protein, nanobody-Fc
Protocol: (§1) Recombinant human protein was diluted in PBS to a final concentration of 5 μg/mL and was immobilized on 96-well flat bottom MaxiSorp plates (Thermo Fisher Scientific) and placed at 4° C. overnight. Plates were washed three times with 225 μL ELISA wash buffer (PBS with 0.05% Tween 20) and 200 μL ELISA blocking buffer (PBS with 1% Casein) was added to the well. Plates were incubated with shaking for 2 hours at room temperature. ELISA blocking buffer was removed from the wells and appropriate dilutions of recombinant nanobodies in 100 μL ELISA blocking buffer was added to each well. Plates were incubated with shaking for 2 hours at room temperature. Plates were washed 3 times with 225 μL ELISA wash buffer and 1:5000 goat anti-human IgG HRP (Millipore Sigma) in 100 μL ELISA blocking buffer was added to the wells. Plates were incubated with shaking for 1 hour at room temperature. Plates were washed 6 times with 225 μL ELISA wash buffer. 50 μL TMB substrate (BD Biosciences) was added to the wells and plates were incubated for 15 minutes in the dark at room temperature. 50 μL 1 M sulfuric acid was added to the wells and absorbance at 450 nm was measured in a Synergy HTX Multi-Mode Microplate Reader (BioTek).

CD3D = biological target: T2, CD3D (human, UniProt P04234 22-105); assay: as above
T2 construct: Recombinant human protein in ELISA
T2 sequence (P04234 22-105 limits assumed): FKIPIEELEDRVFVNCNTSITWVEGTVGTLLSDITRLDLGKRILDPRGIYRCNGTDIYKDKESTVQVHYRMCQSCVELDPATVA
Protocol: as §1

IL21 = biological target: T3, IL21 (human, UniProt Q9HBE4 32-162, limits assumed); assay: as above
T3 construct: Recombinant human protein in ELISA
T3 sequence (Q9HBE4 32-162 limits assumed): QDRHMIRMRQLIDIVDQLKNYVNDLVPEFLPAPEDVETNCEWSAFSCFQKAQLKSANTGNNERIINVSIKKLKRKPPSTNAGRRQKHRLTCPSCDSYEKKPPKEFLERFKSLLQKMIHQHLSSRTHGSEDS
Protocol: as §1

TIGIT = biological target: T4, TIGIT (human, UniProt Q495A1 22-141); assay: as above
T4 construct: Recombinant human protein in ELISA
T4 sequence (looked up): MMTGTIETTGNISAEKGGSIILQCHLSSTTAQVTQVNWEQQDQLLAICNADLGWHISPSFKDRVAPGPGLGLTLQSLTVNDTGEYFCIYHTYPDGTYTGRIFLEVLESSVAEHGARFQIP
Protocol: as §1

CEACAM4 = biological target: T5, CEACAM4 (human, UniProt O75871 36-155, limits assumed); assay: as above
T5 construct: Recombinant human protein in ELISA
T5 sequence (looked up): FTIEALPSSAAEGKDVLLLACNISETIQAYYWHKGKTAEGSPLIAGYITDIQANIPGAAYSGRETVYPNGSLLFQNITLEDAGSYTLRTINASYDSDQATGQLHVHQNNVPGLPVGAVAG
Protocol: as §1

REAP Off-Targets = assay: REAP, nanobody-Fc on yeast-displayed human antigen library
[3] = biological target: T6, TNFSF18 (recombinant human protein) (human, UniProt Q9UNG2 52-177, limits assumed); assay: ELISA, recombinant human protein coated, nanobody-Fc titrated, anti-human IgG HRP
T6 construct: Recombinant human protein immobilized at 5 ug/mL for ELISA
T6 sequence (looked up): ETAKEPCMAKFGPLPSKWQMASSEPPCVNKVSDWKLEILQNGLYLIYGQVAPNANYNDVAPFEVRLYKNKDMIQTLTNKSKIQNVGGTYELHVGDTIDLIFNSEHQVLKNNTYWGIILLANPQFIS
Protocol: as §1

IL13 = biological target: T7, IL13 (human, UniProt P35225 35-146, limits assumed); assay: ELISA, plate-coated recombinant human protein, nanobody-Fc
T7 construct: Recombinant human protein in ELISA
T7 sequence (P35225 35-146 limits assumed): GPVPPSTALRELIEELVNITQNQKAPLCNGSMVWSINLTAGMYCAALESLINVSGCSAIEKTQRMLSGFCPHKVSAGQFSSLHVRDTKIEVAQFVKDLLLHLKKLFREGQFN
Protocol: as §1

CCL16 = biological target: T8, CCL16 (human, UniProt O15467 24-120); assay: as above
T8 construct: Recombinant human protein in ELISA and BLI
T8 sequence (looked up): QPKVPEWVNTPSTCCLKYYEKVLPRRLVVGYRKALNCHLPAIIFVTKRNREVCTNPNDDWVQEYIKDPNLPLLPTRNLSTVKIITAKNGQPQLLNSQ
Protocol: as §1

[4] = biological target: T9, TNF (recombinant human protein) (human, UniProt P01375 77-233); assay: ELISA, recombinant human protein coated, nanobody-Fc titrated, anti-human IgG HRP
T9 construct: Recombinant human protein immobilized at 5 ug/mL for ELISA
T9 sequence (P01375 77-233 limits assumed): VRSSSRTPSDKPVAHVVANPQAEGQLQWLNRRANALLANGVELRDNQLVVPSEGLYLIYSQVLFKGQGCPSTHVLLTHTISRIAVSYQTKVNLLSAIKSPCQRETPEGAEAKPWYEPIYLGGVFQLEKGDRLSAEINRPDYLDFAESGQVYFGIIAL
Protocol: as §1

B1: IL17A_Nb2.92 (Fc fusion)
chain: QVQLQESGGGLVQAGGSLRLSCAASGTISQGDYMGWYRQAPGKEREFVASIAIGTITYYADSVKGRFTISRDNAKNTVYLQMNSLKPEDTAVYYCAVSVQFSYDFYYWGQGTQVTVSS
notes: Nanobody expressed and tested as Fc fusion (human IgG1); not shown: human IgG1 Fc (vector pCER243)
In the case of B1, the Kd (IL17A [1]) is reported as 0.656 nM and the EC50 (IL17A [2]) is reported as 0.179 nM.

B2: CD3D_Nb2.34 (Fc fusion)
chain: QVQLQESGGGLVQAGGSLRLSCAASGTISTLDYMGWYRQAPGKEREFVAAINYGSNTYYADSVKGRFTISRDNAKNTVYLQMNSLKPEDTAVYYCAAADVTRPAYDYWGQGTQVTVSS
notes: as for B1
Work on B2 yielded an EC50 (CD3D) of 0.575 nM.

B3: CD3D_Nb2.36 (Fc fusion)
chain: QVQLQESGGGLVQAGGSLRLSCAASGSISAYWAMGWYRQAPGKEREFVAAINFGANTYYADSVKGRFTISRDNAKNTVYLQMNSLKPEDTAVYYCAAERDGDYHDYWGQGTQVTVSS
notes: as for B1
Work on B3 yielded an EC50 (CD3D) of 29.6 nM.

B4: IL21_Nb2.28 (Fc fusion)
chain: QVQLQESGGGLVQAGGSLRLSCAASGSISNTYVMGWYRQAPGKERELVAAIGHGGTTYYADSVKGRFTISRDNAKNTVYLQMNSLKPEDTAVYYCAVYLSRVRKFYYWGQGTQVTVSS
notes: as for B1
B4 was tested, and the EC50 (IL21) was 3.14 nM.

B5: IL21_Nb2.30 (Fc fusion)
chain: QVQLQESGGGLVQAGGSLRLSCAASGTIFRETVMGWYRQAPGKERELVAAIDDGTSTYYADSVKGRFTISRDNAKNTVYLQMNSLKPEDTAVYYCAARASYTYGRLRFRYWGQGTQVTVSS
notes: as for B1
B5 was tested, and the EC50 (IL21) was 7.16 nM.

B6: TIGIT_Nb2.82 (Fc fusion)
chain: QVQLQESGGGLVQAGGSLRLSCAASGTISVVQDMGWYRQAPGKERELVAGIAKGGNTYYADSVKGRFTISRDNAKNTVYLQMNSLKPEDTAVYYCAASPIPFSYAYPAYHYWGQGTQVTVSS
notes: as for B1
With B6 the EC50 (TIGIT) was 12.8 nM.

B7: CEACAM4_Nb40 (Fc fusion)
chain: QVQLQESGGGLVQAGGSLRLSCAASGTISPGYGMGWYRQAPGKEREFVATIAFGSSTYYADSVKGRFTISRDNAKNTVYLQMNSLKPEDTAVYYCAVAIYIPYFFRYWGQGTQVTVSS
notes: as for B1
For B7, the EC50 (CEACAM4) was 14.5 nM.

B8: CEACAM4_Nb36 (Fc fusion)
chain: QVQLQESGGGLVQAGGSLRLSCAASGNIFLGPYMGWYRQAPGKEREFVASINYGASTNYADSVKGRFTISRDNAKNTVYLQMNSLKPEDTAVYYCAAGYYSNDYYYYEYSYWGQGTQVTVSS
notes: as for B1
B8 was tested, and the EC50 (CEACAM4) was 15.6 nM.

B9: TNFSF18_Nb98 (Fc fusion)
chain: QVQLQESGGGLVQAGGSLRLSCAASGSIFYVIAMGWYRQAPGKERELVATITAGTNTYYADSVKGRFTISRDNAKNTVYLQMNSLKPEDTAVYYCAVYALQQDVYDRSHAYWGQGTQVTVSS
notes: Nanobody expressed as an Fc fusion protein (fused with human IgG1) in Expi293 cells; not shown: human IgG1 Fc; nanobodies expressed as Fc fusion from vector pCER243
B9 was tested, and the REAP Off-Targets (number) (REAP Off-Targets) was 4 off-targets and the EC50 [3] was 6.05 nM.

B10: CD3D_Nb2.35 (Fc fusion)
chain: QVQLQESGGGLVQAGGSLRLSCAASGTIFAYWYMGWYRQAPGKEREFVAAIGDGSSTYYADSVKGRFTISRDNAKNTVYLQMNSLKPEDTAVYYCAAEAPGYGHTYWGQGTQVTVSS
notes: as for B1
Work on B10 yielded an EC50 (CD3D) of 1.72 nM.

B11: IL13_Nb2.41 (Fc fusion)
chain: QVQLQESGGGLVQAGGSLRLSCAASGTIFVDEFMGWYRQAPGKEREFVASINDGGSTYYADSVKGRFTISRDNAKNTVYLQMNSLKPEDTAVYYCAVFEPSPDGDPFGDRAWFWYWGQGTQVTVSS
notes: as for B1
With B11 the EC50 (IL13) was 1.02 nM.

B12: TIGIT_Nb2.84 (Fc fusion)
chain: QVQLQESGGGLVQAGGSLRLSCAASGNISYVRWMGWYRQAPGKERELVAGIGVGGITNYADSVKGRFTISRDNAKNTVYLQMNSLKPEDTAVYYCAATDVDWILYRYWGQGTQVTVSS
notes: as for B1
B12 gave an EC50 (TIGIT) of 483 nM.

B13: CEACAM4_Nb41 (Fc fusion)
chain: QVQLQESGGGLVQAGGSLRLSCAASGTISRSSIMGWYRQAPGKEREFVAGISYGSTTYYADSVKGRFTISRDNAKNTVYLQMNSLKPEDTAVYYCAVRDLYVWDHAYWGQGTQVTVSS
notes: as for B1
B13 gave an EC50 (CEACAM4) of 32.7 nM.

B14: TIGIT_Nb2.81 (Fc fusion)
chain: QVQLQESGGGLVQAGGSLRLSCAASGTISLLEYMGWYRQAPGKEREFVAAITGGSSTNYADSVKGRFTISRDNAKNTVYLQMNSLKPEDTAVYYCAASLVPYDKDNLFFGYWGQGTQVTVSS
notes: as for B1
Work on B14 yielded an EC50 (TIGIT) of 29.8 nM.

B15: CCL16_Nb2.5 (Fc fusion)
chain: QVQLQESGGGLVQAGGSLRLSCAASGYIFGVYDMGWYRQAPGKERELVATISAGGTTNYADSVKGRFTISRDNAKNTVYLQMNSLKPEDTAVYYCAAYTDYSPYDGAALVYWGQGTQVTVSS
notes: as for B1
Binder B15 has an EC50 (CCL16) of 1.78 nM.

B16: IL21 Nb2.29 (Fc fusion)
chain: QVQLQESGGGLVQAGGSLRLSCAASGNISWGTIMGWYRQAPGKEREFVAAISHGANTNYADSVKGRFTISRDNAKNTVYLQMNSLKPEDTAVYYCAAQSRAGSTRPRYHKYWGQGTQVTVSS
notes: as for B1
With B16 the EC50 (IL21) was 3.73 nM.

B17: TNFSF18_Nb94 (Fc fusion)
chain: QVQLQESGGGLVQAGGSLRLSCAASGNISLYYDMGWYRQAPGKERELVAAIDPGTITYYADSVKGRFTISRDNAKNTVYLQMNSLKPEDTAVYYCAVVIPDYVYRYVVGTVDYGYWGQGTQVTVSS
notes: as for B9
Work on B17 yielded an REAP Off-Targets (number) (REAP Off-Targets) of 1 off-targets and an EC50 [3] of 71.8 nM.

B18: TNF_Nb109 (Fc fusion)
chain: QVQLQESGGGLVQAGGSLRLSCAASGYISGEWFMGWYRQAPGKERELVAGISRGSTTYYADSVKGRFTISRDNAKNTVYLQMNSLKPEDTAVYYCAVYLTHKGYDGADGVVHHRYWGQGTQVTVSS
notes: as for B9
For B18, the REAP Off-Targets (number) (REAP Off-Targets) was 7 off-targets and the EC50 [4] was 23.8 nM.

B19: IL13_Nb2.42 (Fc fusion)
chain: QVQLQESGGGLVQAGGSLRLSCAASGTISATDFMGWYRQAPGKERELVAAINHGGSTYYADSVKGRFTISRDNAKNTVYLQMNSLKPEDTAVYYCAAARDDYPWHDYWGQGTQVTVSS
notes: as for B1
With B19 the EC50 (IL13) was 38.4 nM.

B20: TNF_Nb105 (Fc fusion)
chain: QVQLQESGGGLVQAGGSLRLSCAASGTISVTYFMGWYRQAPGKERELVAGIGTGANTYYADSVKGRFTISRDNAKNTVYLQMNSLKPEDTAVYYCAAYIGAPVYGDGQSRNKAKVYDYWGQGTQVTVSS
notes: as for B9
Work on B20 yielded an REAP Off-Targets (number) (REAP Off-Targets) of 2 off-targets and an EC50 [4] of 5.57 nM.

B21: CD3D_Nb2.33 (Fc fusion)
chain: QVQLQESGGGLVQAGGSLRLSCAASGSIFYAEYMGWYRQAPGKEREFVAAITAGSTTYYADSVKGRFTISRDNAKNTVYLQMNSLKPEDTAVYYCAADGYYYGIEFTYYEYWGQGTQVTVSS
notes: as for B1
For B21, the EC50 (CD3D) was 8.22 nM.

B22: IL17A_Nb2.90 (Fc fusion)
chain: QVQLQESGGGLVQAGGSLRLSCAASGYISLRFYMGWYRQAPGKEREFVATIDDGSSTYYADSVKGRFTISRDNAKNTVYLQMNSLKPEDTAVYYCAVTAQTYYDHVYWGQGTQVTVSS
notes: as for B1
B22 gave a Kd (IL17A [1]) of 0.977 nM and an EC50 (IL17A [2]) of 0.249 nM.

B23: TNFSF18_Nb96 (Fc fusion)
chain: QVQLQESGGGLVQAGGSLRLSCAASGNISWVYWMGWYRQAPGKERELVAGIATGGSTNYADSVKGRFTISRDNAKNTVYLQMNSLKPEDTAVYYCAVVASNGSRFWYWGQGTQVTVSS
notes: as for B9
For B23, the REAP Off-Targets (number) (REAP Off-Targets) was 6 off-targets and the EC50 [3] was 4.07 nM.
